Reference: patent publication US8492329B2, “Bioactive peptides and methods of using same” (Compugen Ltd., priority 2007, dated 2013)
No end group written: not given here.

Experiments:
LGR7 (RXFP1) = molecular target: T1, LGR7 (RXFP1) (Homo sapiens, UniProt Q9HBX9); test: Competition with Europium labelled H2 Relaxin binding to HEK-293T cells expressing LGR7; set-up: expressed in transfected cells; conditions: LGR7 HEK-293T; 0.01 nM-10 μM; FIG. 9
T1 sequence (Q9HBX9 1-757): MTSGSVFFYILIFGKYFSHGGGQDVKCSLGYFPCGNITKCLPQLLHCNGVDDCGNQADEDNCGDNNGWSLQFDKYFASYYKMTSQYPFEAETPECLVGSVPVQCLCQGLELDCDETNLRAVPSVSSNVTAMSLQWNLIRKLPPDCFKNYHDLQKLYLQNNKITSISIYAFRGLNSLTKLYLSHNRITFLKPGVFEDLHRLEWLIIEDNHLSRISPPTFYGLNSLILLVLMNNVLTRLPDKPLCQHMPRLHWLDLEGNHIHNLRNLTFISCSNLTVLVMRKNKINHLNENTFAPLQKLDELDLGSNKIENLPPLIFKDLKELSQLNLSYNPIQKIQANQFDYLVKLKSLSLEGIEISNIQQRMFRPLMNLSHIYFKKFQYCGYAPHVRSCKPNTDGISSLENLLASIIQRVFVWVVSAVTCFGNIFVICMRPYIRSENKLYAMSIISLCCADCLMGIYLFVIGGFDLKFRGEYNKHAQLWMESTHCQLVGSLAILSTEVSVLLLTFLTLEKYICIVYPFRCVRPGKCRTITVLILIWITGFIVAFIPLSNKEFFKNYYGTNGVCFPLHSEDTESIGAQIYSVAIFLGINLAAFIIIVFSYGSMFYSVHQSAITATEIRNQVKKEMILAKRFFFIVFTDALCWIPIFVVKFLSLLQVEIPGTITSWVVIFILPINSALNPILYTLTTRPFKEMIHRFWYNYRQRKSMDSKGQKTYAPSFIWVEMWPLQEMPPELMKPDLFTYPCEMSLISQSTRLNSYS
Description: The ability of Peptides P74C13V (SEQ ID NO: 10) and P59C13V (SEQ ID NO: 6) to compete with the binding of known ligands to LGR7 or LGR8 was tested by testing the ability of P74C13V (SEQ ID NO: 10) and P59C13V (SEQ ID NO: 6) to compete with the binding of Europium labelled H2 Relaxin or INSL3 (manufactured by the H. Florey institute) to stable HEK-293T cell lines expressing LGR7 or LGR8 respectively.
HEK-293T cell lines stabelly expressing LGR7 (RXFP1) were treated with Europium labelled H2 Relaxin (manufactured by the H. Florey institute) The cells were then treated with decimal increasing concentrations (0.01 nM, 0.1 nM, 1 nM, 10 nM, 100 nM, 1 μM, 10 μM) of un-labeled H2 Relaxin (as a positive control) and the tested peptides P59C13V (P59) (SEQ ID NO: 6), P59C13V-Amide (P59-Amide) (SEQ ID NO: 5), P59-S-Amide (P59S) (SEQ ID NO: 1) and P74C13V (P74) (SEQ ID NO: 10). The binding results are shown as a percentage of specific binding of the radioactive test H2 Relaxin (where 100% is the baseline radiation level).

LGR8 (RXFP2) = LGR8 (RXFP2) (Homo sapiens, UniProt Q8WXD0); test: cAMP accumulation (Hit Hunter cAMP kit) in CHO-K1 cells transiently transfected with LGR8; type: cell-based; set-up: expressed in transfected cells; host or cells: CHO-K1 (transient); conditions: for cAMP inhibition (Gi) effect: 1 uM, LGR8 CHO-K1 cells pre-treated with 10 uM Forskolin, FIG. 1; for change in cAMP, dose response, higher concentrations: concentrations higher than 100 nM (up to 10 uM); for change in cAMP, dose response, higher concentrations / change in cAMP, dose response, lower concentrations: 20 uM Forskolin, FIG. 2; for change in cAMP, dose response, lower concentrations: concentrations lower than 100 nM
Description: The ability of Peptides to affect cAMP concentration was examined in CHO-K1 cells transiently transfected with LGR7 (RXFP1) or LGR8 (RXFP2). The experiment measured cAMP concentration in response to the addition of the peptides.
LGR7 (RXFP1) or LGR8 (RXFP2) were transiently transfected into CHO-K1 cells as follows: Cells (12 million) were plated into T75 flasks on the day preceding transfection. Cells were transfected with a GPCR DNA and Gα16 using a lipid technique according to the manufacturer's recommendation. Cells were transfected for 5 hours, then re-plated into 96-well dishes (60,000 cells per well) and grown overnight. Transfected cells were plated into 24 wells of a 96-well plate. Cells were pre-treated with 0.5 mM IBMX (stimulation buffer) for 10 min at 37° C., then stimulated with either a positive control (Relaxin 2) or a candidate peptide (for Gs functional examination), followed by stimulation or a preincubation with 10 μM forskolin (for Gi functional examination). Following a 20 minutes stimulation by incubation with 1 μM of either positive control or the tested peptides, either with or without forskolin, intracellular cAMP was assayed using the Hit Hunter cAMP kit (DiscoveRx Corporation) according to the manufacturer's recommended protocol. Data was converted to nmol of cAMP by running a standard cAMP curve.
Relaxin was used as a positive control. cAMP level was elevated by pre-treatment with forskolin.
The transfected CHO-K1 cells were treated with 10 uM of Forskolin (Applied cell sciences (ACS)) for 10 minutes and then challenged with 1 uM of H2 Relaxin (ACS) (as a positive control), 1 uM of Peptide P59C13V (P59) (SEQ ID NO: 6), and Peptide P74C13V (P74) (SEQ ID NO: 10).
A dose response effect of P59C13V (P59) and P74C13V (P74) on CHO-K1 cells transiently transfected with LGR8 (RXFP2) was further examined (Method as above). CHO-K1 cells transiently transfected with LGR8 (RXFP2) were treated with 20 uM of Forskolin for 10 minutes and then challenged with either INSL3 (as a positive control), P59C13V (SEQ ID NO: 6) or P74C13V (P74) (SEQ ID NO: 10) at increasing concentrations from 1 nM to 10 uM.

Sequence of LGR8 (RXFP2) (Q8WXD0 whole entry): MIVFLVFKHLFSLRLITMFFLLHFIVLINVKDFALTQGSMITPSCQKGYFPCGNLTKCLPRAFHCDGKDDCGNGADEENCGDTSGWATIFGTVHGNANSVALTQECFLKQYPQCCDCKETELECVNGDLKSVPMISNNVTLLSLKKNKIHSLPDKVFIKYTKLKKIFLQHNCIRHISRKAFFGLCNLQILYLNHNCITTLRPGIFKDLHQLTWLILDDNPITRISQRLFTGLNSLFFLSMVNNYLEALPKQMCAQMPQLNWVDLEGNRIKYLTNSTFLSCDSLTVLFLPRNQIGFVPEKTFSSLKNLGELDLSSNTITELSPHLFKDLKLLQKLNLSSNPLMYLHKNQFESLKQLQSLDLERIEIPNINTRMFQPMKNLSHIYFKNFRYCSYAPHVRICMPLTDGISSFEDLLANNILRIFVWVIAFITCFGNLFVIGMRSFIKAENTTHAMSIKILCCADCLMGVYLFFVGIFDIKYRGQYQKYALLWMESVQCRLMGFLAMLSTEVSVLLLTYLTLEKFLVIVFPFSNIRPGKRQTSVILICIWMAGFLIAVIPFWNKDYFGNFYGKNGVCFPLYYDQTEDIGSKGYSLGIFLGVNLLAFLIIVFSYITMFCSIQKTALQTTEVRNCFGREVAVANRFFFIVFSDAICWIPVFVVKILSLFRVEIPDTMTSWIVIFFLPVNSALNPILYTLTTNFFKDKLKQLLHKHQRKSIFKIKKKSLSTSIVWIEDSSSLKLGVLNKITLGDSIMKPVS

How did the “competition for binding of Europium-H2 Relaxin” value (“competition for binding” for short) (LGR7 (RXFP1)) turn out when “AYAAFSV-Amide (AYAAFSV-NH2) [Peptide P59-S-Amide]” was run?
The value was “no competition”.

What does the source list for “GQKGQVGPPGAAVRRAYAAFSV [Peptide P59C13V]”?
competition for binding of Europium-H2 Relaxin (LGR7 (RXFP1)): no competition; cAMP inhibition (Gi) effect (LGR8 (RXFP2)): clear cAMP inhibition (Gi) effect; change in cAMP, dose response, higher concentrations (LGR8 (RXFP2)): slight increase (Gs effect); change in cAMP, dose response, lower concentrations (LGR8 (RXFP2)): slight decrease in cAMP

With “GQKGQVGPPGAAVRRAYAAFSV-Amide (GQKGQVGPPGAAVRRAYAAFSV-NH2) [P59C13V-Amide]” as the substance, how does the “competition for binding” value (LGR7 (RXFP1)) read?
The value was “no competition”.

Which “competition for binding” value (LGR7 (RXFP1)) does the source give for “GQKGQVGPPGAAVRRAYAAFSVGRRAYAAFSV-OH [Peptide P74C13V]” here?
Its value is “no competition”.

And the “cAMP inhibition (Gi) effect” value (LGR8 (RXFP2))?
Its value is “clear cAMP inhibition (Gi) effect”.

What about the “change in cAMP, dose response, higher concentrations” value (LGR8 (RXFP2)) of the same substance?
Its value is “no effect”.

And the “change in cAMP, dose response, lower concentrations” value (LGR8 (RXFP2))?
Its value is “slight increase in cAMP”.

With “H2 Relaxin: H2 Relaxin (ACS), positive control, known ligand of LGR7 (RXFP1) [reference compound]” as the substance, how does the “cAMP inhibition (Gi) effect” value (LGR8 (RXFP2)) read?
Its value is “affected only the LGR7 (RXFP1) receptor”.
